Legend:
[1] = test system: SK-N-BE(2)-M17 (M17) cells; test: Rotenone toxicity in stably transfected cell lines, LDH release; assay type: cell-based; conditions: for rotenone-induced cell death, % of that in control cells: 1 μM rotenone, LDH release; for rotenone-induced cell death, % of that in control cells / protection against rotenone toxicity (LDH release): 48 hours; for protection against rotenone toxicity (LDH release): rotenone at varying concentrations
Method: Cell lines stably-transfected with either 14-3-3θ or empty vector were treated with varying concentrations of rotenone (0-25 μM) for 24 hours (FIG. 6A), 30 hours (FIG. 6B), or 48 hours (FIG. 6C). Cell death was assayed by LDH release into the culture media. LDH release into media was normalized to total LDH release for each well. […] Rater was blind to experimental condition. n=8 for each experimental condition. *p<0.05, ***p<0.001 (Bonferroni's multiple comparison test).
(§1) M17 cell lines stably-transfected with either a 14-3-3 isoform or empty vector were treated with varying concentrations of rotenone (0-25 μM) for 48 hours. Cell death was assayed by LDH release into the culture media. LDH release into media was normalized to total LDH release for each well. […] Results reflect two to three independent experiments with at least two replicates per experiment. *p<0.05, **p<0.01, ***p<0.001 (Bonferroni's multiple comparison test).
Additional studies were performed to evaluate the effect of 14-3-3 polypeptide isoforms in mammalian cells. In these studies, cDNA clones for the 14-3-3 polypeptide β, γ, ε, η, θ, and σ isoforms were subcloned into the mammalian expression vector pcDNA 3.1/V5/His (Invitrogen). The polypeptide expressed from this vector contains the particular 14-3-3 isoform with a V5 and a His6 tag at the C-terminal end. […] SK-N-BE(2)-M17 (M17) cells, a dopaminergic-producing human neuroblastoma cell line, were transfected with each isoform or empty vector using Superfect, and stably-transfected cells were selected for in the presence of G418.
The M17 14-3-3θ clones were examined for their resistance to rotenone (0-25 μM). M17 cell lines stably transfected with either 14-3-3θ or empty vector were treated with rotenone for 24 (FIG. 6A), 30 (FIG. 6B) or 48 hours (FIG. 6C). Cell death was assayed by […] (LDH) release into the culture media using the LDH assay kit from Roche. LDH release into media was normalized to total LDH release for each well. Results reflect three independent experiments with at least two replicates per experiment.
Stable M17 cell lines overexpressing these other isoforms were treated with rotenone at varying concentrations, and then cell death was assayed at 48 hours by LDH release. […]

[2] = test system: M17 cells; test: MPP+ toxicity in stably transfected cell lines, LDH release; assay type: cell-based, human; conditions: stable overexpression; MPP+ 0-10 mM; 24 hours
Method: as §1, with “Cell” for “M17 cell”, “MPP+” for “rotenone (0-25 μM)”, “24” for “48”, “well. Lines overexpressing 14-3-3θ (FIG. 9A), 14-3-3ε (FIG. 9B), or 14-3-3γ (FIG. 9C) were more resistant to MPP+ in a dose-dependent manner compared to control stable cells.” for “well.”, “experiment.” for “experiment. *p<0.05,”
The 14-3-3 expressing M17 clones were also tested for resistance to the neurotoxin 1-methyl-4-phenylpyridinium ion (MPP+), which is a metalbolite of 1-methyl-4-phenyl-1,2,3,6-tetrahydropyridine (MPTP). M17 cells expressing the 14-3-3 isoforms were prepared as described. M17 cells were treated with MPP+ (0-10 mM) for 24 hours (FIGS. 9A-G). Cell death was assayed by LDH release into the culture media as described above.
Primers against each of the human 14-3-3 isoforms were designed using Primer3. Primers against 14-3-3β (NM_018753) were 5′ […] 3′ (forward; SEQ ID NO. 9) and 5′ […] 3′ (reverse; SEQ ID NO. 10). Primers against 14-3-3ε (NM_009536) were 5′ […] 3′ (forward; SEQ ID NO. 11) and 5′ […] 3′ (reverse; SEQ ID NO. 12). Primers against 14-3-3γ (NM_018871) were 5′ […] 3′ (forward; SEQ ID NO. 13) and 5′ […] 3′ (reverse; SEQ ID NO. 14). Primers against 14-3-3η (NM_011738) were 5′ […] 3′ (forward; SEQ ID NO. 15) and 5′ […] 3′ (reverse; SEQ ID NO. 16). Primers against 14-3-3θ (NM_011739) were 5′ […] 3′ (forward; SEQ ID NO. 17) and 5′ […] 3′ (reverse; SEQ ID NO. 18). Primers against 14-3-3σ (NM_018754) were 5′ […] 3′ (forward; SEQ ID NO. 19) and 5′ […] 3′ (reverse; SEQ ID NO. 20). Primers against 14-3-3ζ(NM_011740) were 5′ […] 3′ (forward; SEQ ID NO. 21) and 5′ […] 3′ (reverse; SEQ ID NO. 22). Primers against GAPDH were 5′ tggtgaagcaggeatctga 3′ (forward; SEQ ID NO. 23) and 5′ […] 3′ (reverse; SEQ ID NO. 24) and were used to normalize PCR results. • α-syn aggregation assay H4 cells were transfected with synphilin, α-syn/green fluorescent protein (synT), and either empty vector control or a 14-3-3 isoform using Superfect transfection reagent (Qiagen). 24 hours after transfection, cells were fixed with 4% paraformaldehyde and immunostained with a monoclonal antibody against α-syn (BD Transduction) and a secondary Alexa 488-conjugated goat anti-mouse antibody (Molecular Probes). All cells stained for α-syn were scored as positive or negative for α-syn aggregates, with the rater blind to experimental condition. • α-syn toxicity assay H4 cells were transfected with α-syn and either empty vector control or a 14-3-3 isoform using Superfect transfection reagent (Qiagen). 24 hours after transfection, toxicity was measured by the amount of adenylate kinase released into the media using the ToxiLight™ kit (Cambrex). • Creation of stable cell lines Each 14-3-3 isoform was subcloned into the mammalian expression vector mcDNA3.1/V5-His (Invitrogen). BE(2)-M17 cells were transfected with each isoform or empty vector using Superfect, and stably-transfected cells were selected for in the presence of G418. […] Protein concentrations of supernatants were determined by the bicinchoninic acid assay (BCA; Pierce, Rockford, Ill.). […]

Molecule | rotenone-induced cell death, % of that in control cells ([1]; stable overexpression) | protection against rotenone toxicity (LDH release) ([1]; stable overexpression) | protection against MPP+ toxicity (LDH release) [2] | protection against rotenone at low doses ([1]; 0.04 and 0.2 μM rotenone) | protection against rotenone at higher doses ([1]; 1 and 5 μM rotenone) | resistance to rotenone toxicity compared to control cells (LDH release) ([1]; stable overexpression, rotenone 0-25 μM, 24, 30 or 48 hours)
14-3-3γ: 14-3-3 polypeptide γ isoform, overexpressed from expression vector | 55% | prominent reduction in rotenone-induced toxicity | reduced toxicity |  |  | 
14-3-3ζ: 14-3-3 polypeptide ζ isoform, overexpressed from expression vector (protein, UniProt P63104 1-245, looked up) 14-3-3 protein zeta/delta: MDKNELVQKAKLAEQAERYDDMAACMKSVTEQGAELSNEERNLLSVAYKNVVGARRSSWRVVSSIEQKTEGAEKKQQMAREYREKIETELRDICNDVLSLLEKFLIPNASQAESKVFYLKMKGDYYRYLAEVAAGDDKKGIVDQSQQAYQEAFEISKKEMQPTHPIRLGLALNFSVFYYEILNSPEKACSLAKTAFDEAIAELDTLSEESYKDSTLIMQLLRDNLTLWTSDTQGDEAEAGEGGEN | 78% | some protection | did not show any significant protection |  |  | 
14-3-3ε: 14-3-3 polypeptide ε isoform, overexpressed from expression vector (protein, UniProt P62258 1-255, looked up) 14-3-3 protein epsilon: MDDREDLVYQAKLAEQAERYDEMVESMKKVAGMDVELTVEERNLLSVAYKNVIGARRASWRIISSIEQKEENKGGEDKLKMIREYRQMVETELKLICCDILDVLDKHLIPAANTGESKVFYYKMKGDYHRYLAEFATGNDRKEAAENSLVAYKAASDIAMTELPPTHPIRLGLALNFSVFYYEILNSPDRACRLAKAAFDDAIAELDTLSEESYKDSTLIMQLLRDNLTLWTSDMQGDGEEQNKEALQDVEDENQ | 65% | prominent reduction in rotenone-induced toxicity | reduced toxicity |  |  | 
14-3-3θ: 14-3-3 polypeptide θ isoform, overexpressed from V5/His-tagged pcDNA3.1 vector (or as transgene in C. elegans) (protein, UniProt P27348 1-245, looked up, V5/His tag) 14-3-3 protein theta: MEKTELIQKAKLAEQAERYDDMATCMKAVTEQGAELSNEERNLLSVAYKNVVGGRRSAWRVISSIEQKTDTSDKKLQLIKDYREKVESELRSICTTVLELLDKYLIANATNPESKVFYLKMKGDYFRYLAEVACGDDRKQTIDNSQGAYQEAFDISKKEMQPTHPIRLGLALNFSVFYYEILNNPELACTLAKTAFDEAIAELDTLNEDSYKDSTLIMQLLRDNLTLWTSDSAGEECDAAEGAEN | 45% |  | reduced toxicity | Mild protection | more prominent protection | more resistant to rotenone toxicity
